Two molecules from publication PMC10288512, “MUC1 Glycopeptide Vaccine Modified with a GalNAc Glycocluster Targets the Macrophage Galactose C-type Lectin on Dendritic Cells to Elicit an Improved Humoral Response” (Journal of the American Chemical Society, 2023) can be followed below.

In general, EC50 refers to the concentration that produces a half-maximal response.

Assay [1] addresses MGL receptor on murine bone marrow-derived dendritic cells (mouse (endogenous in BMDCs)) (UniProt Q8JZN1).
In assay [2] the target is peptide 12, MUC1 tandem repeat peptide with the TPEaa trivalent alpha-S-GalNAc glycocluster 1 at the N-terminus, biotinylated. In words: ELISA; biotinylated peptides 9-14 coupled to streptavidin-coated plates at twofold serial dilutions; probed with recombinant MGL-Fc at a constant concentration; detection with goat anti-human Fc-peroxidase; EC50 from curve fitting over the peptide concentration. Background: ELISA stands for enzyme-linked immunosorbent assay.

For assay [3], the target named is peptide 14, MUC1 tandem repeat (glyco)peptide with a triethylene glycol spacer and the TPEaa trivalent alpha-S-GalNAc glycocluster 1 at the N-terminus, biotinylated. Described as above.
The target in assay [4] is peptide 13, MUC1 tandem repeat (glyco)peptide with the TPEaa trivalent alpha-S-GalNAc glycocluster 1 at the N-terminus, biotinylated. The assay is described as above.

Sequence of UniProt Q8JZN1 (Q8JZN1 entry or part of it): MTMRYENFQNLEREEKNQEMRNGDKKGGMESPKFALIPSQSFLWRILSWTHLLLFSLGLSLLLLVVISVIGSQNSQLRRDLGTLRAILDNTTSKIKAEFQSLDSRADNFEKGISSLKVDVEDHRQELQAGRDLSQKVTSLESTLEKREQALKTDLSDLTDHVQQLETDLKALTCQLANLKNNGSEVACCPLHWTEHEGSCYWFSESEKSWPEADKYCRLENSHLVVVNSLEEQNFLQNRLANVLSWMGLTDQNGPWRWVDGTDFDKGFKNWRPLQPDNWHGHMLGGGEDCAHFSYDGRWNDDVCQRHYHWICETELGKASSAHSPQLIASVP

“peptide 12, MUC1 tandem repeat peptide with the TPEaa trivalent alpha-S-GalNAc glycocluster 1 at the N-terminus, biotinylated” came in with a decrease in accessible MGL on the BMDC surface (anti-MGL antibodies, flow cytometry) after treatment with peptide 12 for 30 min at 37 °C, against untreated cells in assay [1] of 48%.

B1: recombinant MGL (macrophage galactose-type lectin) tagged with a human IgG1 Fc fragment (Fc fusion)
chain: QNSKFQRDLVTLRTDFSNFTSNTVAEIQALTSQGSSLEETIASLKAEVEGFKQERQAGVSELQEHTTQKAHLGHCPHCPSVCVPVHSEMLLRVQQLVQDLKKLTCQVATLNNNASTEGTCCPVNWVEHQDSCYWFSHSGMSWAEAEKYCQLKNAHLVVINSREEQNFVQKYLGSAYTWMGLSDPEGAWKWVDGTDYATGFQNWKPGQPDDWQGHGLGGGEDCAHFHPDGRWNDDVCQRPYHWVCEAGLGQTSQESH
Consider B1, for which the fold avidity against peptide 11 in assay [2] and in assay [4] was 10 fold in each case. Besides, the concentration giving a half-maximal response (EC50) in assay [3] stood at 2.65 nM; in assay [4], 3.9 nM.
